In assay [1] the target is inter-α-inhibitor (IαI) (human) (UniProt P02760).
For assay [2] the target is unchanged. Kind of assay: cell-based or functional assay.

UniProt P02760, sequence (P02760 206-352): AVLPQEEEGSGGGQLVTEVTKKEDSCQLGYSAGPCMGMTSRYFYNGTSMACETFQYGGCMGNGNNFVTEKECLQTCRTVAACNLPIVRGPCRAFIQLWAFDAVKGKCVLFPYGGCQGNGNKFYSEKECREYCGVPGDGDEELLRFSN

As for “TNF-stimulated gene 6 protein (TSG-6), recombinant (from UniProt P98066 18-277)”, the EC50 (read off the curve): TSG-6 concentration for half-maximal HC transfer from plasma IαI (1:1000) to Cov-HA in assay [1] is 400 pM. Besides, in assay [2], the HC transfer to Cov-HA in the presence of 50 nM TSG-6, plasma dilution series was found to be 200 pM; the decrease in HC transfer to Cov-HA in the presence of 50 nM TSG-6, plasma dilution 1:4000 came out at 50%; the transfer of HCs from IαI in human plasma (1:1000) to Cov-HA, detected with anti-HC antibody is 16 µM.

The values above are taken from US20120064150A1.
